How the values were obtained:
[1] = target: microtubules polymerised from porcine Tubulin (porcine) (UniProt P02550); assay: co-sedimentation
[2] = target: F-actin (polymerised purified rabbit skeletal G-actin) (rabbit) (UniProt P68135); assay: co-sedimentation

UniProt P02550, sequence (P02550 whole entry, looked up): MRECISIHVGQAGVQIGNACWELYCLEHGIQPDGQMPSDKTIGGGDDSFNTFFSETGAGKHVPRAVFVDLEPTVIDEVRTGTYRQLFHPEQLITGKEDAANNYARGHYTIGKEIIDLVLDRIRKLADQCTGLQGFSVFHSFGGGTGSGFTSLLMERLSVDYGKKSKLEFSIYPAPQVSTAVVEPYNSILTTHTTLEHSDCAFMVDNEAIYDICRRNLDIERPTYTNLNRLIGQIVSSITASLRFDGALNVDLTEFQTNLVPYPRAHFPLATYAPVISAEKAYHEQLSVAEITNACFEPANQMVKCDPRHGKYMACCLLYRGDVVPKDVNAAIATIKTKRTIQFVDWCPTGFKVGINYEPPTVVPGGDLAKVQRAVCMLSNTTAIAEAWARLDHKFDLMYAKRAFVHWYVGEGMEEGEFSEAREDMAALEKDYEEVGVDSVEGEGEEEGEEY

Substance | Pellet/Supernatant with F-actin [2] | other results
endogenous HTT of mouse developing cortex (from UniProt P42859 1-3119) (natural protein) | – | amount of HTT in the pellet with microtubules [1]: 1.18
purified human full-length (FL) wild-type HTT (23 glutamines) (from UniProt P42858 1-3142) (natural protein) | 1.05 | Kd [2]: 357 nM
endogenous HTT of mouse developing cortex, P42859 1-3119 | – | amount of HTT in the pellet with F-actin ([2]; remark: other sources report otherwise): 1.07

Further lines, with some results ahead:

Pellet/Supernatant with F-actin [2] | Substance | other results
1.57 | HTT fragment containing the Bridge to C_HEAT domains (B-C_HEAT; 1887 to 3144 a.a.) (domain or fragment) | –
1.6 | HTT Bridge domain tagged with GST (GST-B: 1887-2098 a.a.) (domain or fragment) | –

Source: doi:10.1101/2023.08.29.555277
